Consider three substances from IntAct's records for PubMed 16977309.

Some targets named below: csk2b_human CSNK2B (UniProt P67870); csk21_rat Csnk2a1 (UniProt P19139); csk21_human CSNK2A1 (UniProt P68400).
A further test has as its target T1, gga3_human GGA3 (UniProt Q9NZ52).
T1 sequence: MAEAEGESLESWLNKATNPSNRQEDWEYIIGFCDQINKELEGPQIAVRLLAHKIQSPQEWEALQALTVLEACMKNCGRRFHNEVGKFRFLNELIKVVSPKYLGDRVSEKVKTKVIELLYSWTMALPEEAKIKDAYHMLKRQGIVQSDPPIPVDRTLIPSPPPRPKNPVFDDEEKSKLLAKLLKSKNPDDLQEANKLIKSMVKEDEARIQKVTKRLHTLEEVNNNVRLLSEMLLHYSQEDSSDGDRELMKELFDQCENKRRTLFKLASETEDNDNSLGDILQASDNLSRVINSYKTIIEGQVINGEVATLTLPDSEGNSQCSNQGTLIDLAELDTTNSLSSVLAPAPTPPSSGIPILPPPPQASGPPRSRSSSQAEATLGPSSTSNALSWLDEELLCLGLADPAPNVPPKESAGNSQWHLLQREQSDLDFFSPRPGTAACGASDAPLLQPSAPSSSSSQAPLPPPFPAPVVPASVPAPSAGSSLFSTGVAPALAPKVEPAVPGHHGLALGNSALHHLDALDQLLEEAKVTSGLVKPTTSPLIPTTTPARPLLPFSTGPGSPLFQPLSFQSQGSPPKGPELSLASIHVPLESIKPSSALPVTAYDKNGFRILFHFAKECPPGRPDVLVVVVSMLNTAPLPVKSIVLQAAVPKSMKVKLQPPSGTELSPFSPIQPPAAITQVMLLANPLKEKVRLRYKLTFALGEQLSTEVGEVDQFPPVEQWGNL

csk21_rat Csnk2a1, sequence (P19139 whole entry, looked up): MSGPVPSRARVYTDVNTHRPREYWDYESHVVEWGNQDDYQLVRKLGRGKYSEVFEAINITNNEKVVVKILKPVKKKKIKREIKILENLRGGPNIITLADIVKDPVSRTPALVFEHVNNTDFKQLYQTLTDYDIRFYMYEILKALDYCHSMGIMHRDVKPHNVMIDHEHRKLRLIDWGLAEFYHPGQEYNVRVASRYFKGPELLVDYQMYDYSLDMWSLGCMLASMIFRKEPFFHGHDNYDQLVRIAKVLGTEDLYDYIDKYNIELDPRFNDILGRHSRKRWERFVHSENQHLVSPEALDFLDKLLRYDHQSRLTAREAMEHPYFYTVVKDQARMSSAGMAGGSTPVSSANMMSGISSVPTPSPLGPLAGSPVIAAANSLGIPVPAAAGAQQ
csk21_human CSNK2A1, sequence (P68400 whole entry, looked up): as the sequence (P19139 whole entry, looked up) above, with S335G, A337S, G338S, A340P, S378P, I381M counted along it
csk2b_human CSNK2B, sequence (P67870 whole entry): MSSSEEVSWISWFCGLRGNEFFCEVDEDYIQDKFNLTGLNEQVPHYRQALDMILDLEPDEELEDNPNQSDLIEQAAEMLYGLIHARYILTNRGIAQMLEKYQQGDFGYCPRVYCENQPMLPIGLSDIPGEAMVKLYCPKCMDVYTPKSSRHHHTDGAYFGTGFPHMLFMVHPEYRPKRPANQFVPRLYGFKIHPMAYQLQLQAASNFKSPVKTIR

For the substance “Phosphofurin acidic cluster sorting protein 1 (Homo sapiens) (from UniProt Q6VY07) K249W”, the “effect of a mutation on the interaction” value with gga3_human GGA3 was “disrupting interaction”. As for “Phosphofurin acidic cluster sorting protein 1 (Homo sapiens) (from UniProt Q6VY07) R196A;R197A;K198A;R199A;Y200A”, the “effect of a mutation on the interaction” value was “disrupting interaction” in the test with csk2b_human CSNK2B, “disrupting interaction strength” with csk21_rat Csnk2a1 and “disrupting interaction” with csk21_human CSNK2A1. Consider “Phosphofurin acidic cluster sorting protein 1 (Homo sapiens) (from UniProt Q6VY07) Y251A”, for which the “effect of a mutation on the interaction” value in the test with gga3_human GGA3 is given as “disrupting interaction”.
